The text below walks through data of the supplement of paper PMC12042874.

± gives the uncertainty stated by the source.

A short description of the series: amyloid nucleation score (Sup35N fusion, yeast selection) (log enrichment); library NNK1; higher = more nucleation; inactive = no reads after selection. The method in brief: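 Plasmid inserts were Illumina-sequenced at input and output from psi-negative yeast expressing Sup35N fused to peptides of 20 random codons. The yeast were induced with 100 μM copper sulfate for 24 hours and grown 7 days at 30°C on medium lacking adenine and uracil, and sequences with under 100 input reads were excluded. Nucleation score is the DiMSum log enrichment of output over input reads, centred on the mode score of non-aggregating sequences.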
As to LNTWVGVGGWPE, the amyloid nucleation score was -0.135 ± 0.78.

SSTKG showed an amyloid nucleation score of 0.956 ± 0.72.

NLILIR displayed an amyloid nucleation score of 0.72 ± 0.61.

As to ISLKG, the amyloid nucleation score is 0.655 ± 0.59.

The substance SALWRNFSALRSNWK had an amyloid nucleation score of -0.325 ± 0.34.

As to SETYSSVAWRTMVVAAELVD, the amyloid nucleation score was 0.822 ± 0.95.

GNDGENLMSWTIVWNFIVG displayed an amyloid nucleation score of 4.33 ± 0.062.

Substance FVMLFSCRST gave an amyloid nucleation score of 0.38 ± 0.76.

For GQDDYLWRRSGLDHNHSSSS, the amyloid nucleation score was -0.568 ± 0.37.

Consider SYSIASVFWSSMSNGLGR, for which the amyloid nucleation score was determined as 0.886 ± 0.2.

KLEGSARSGTTSRGSFSECV gave an amyloid nucleation score of 0.254 ± 0.38.

Turning to ADLRVFHYRYFGS, the amyloid nucleation score was -0.223 ± 0.49.

Substance SVNHCHCL gave an amyloid nucleation score of 0.597 ± 0.3.

For the substance YAFGHFCTDADSFCGRCVIL, the amyloid nucleation score stood at 0.09 ± 0.76.

Take GLAASHSTSCSSYMISCWSR: the amyloid nucleation score is -0.055 ± 0.55.

The substance PNMGREYKIGTGHYYEQFFH showed an amyloid nucleation score of -0.082 ± 0.17.

In turn, VKLFSVNKNNMTVPSTALCS yielded an amyloid nucleation score of 5.969 ± 0.047.

LLNYGLRFCLVTARSELTYM returned an amyloid nucleation score of 0.979 ± 0.62.

The substance CGDGPHHVLCLSVVDICVGC gave an amyloid nucleation score of -1.04 ± 1.6.

In the case of NEVPCVRRWSCRGLCARELM, the amyloid nucleation score came to 0.429 ± 0.88.

ATRFIEESTL yielded an amyloid nucleation score of -0.942 ± 0.68.

On to CSFGQIPCNLDQTGLLRARG, for which the amyloid nucleation score stood at 1.1 ± 0.55.

In turn, GTDPGY had an amyloid nucleation score of -0.706 ± 0.6.

In turn, IGSSHRNSLVCVVEDENIQI displayed an amyloid nucleation score of 1.01 ± 0.5.

The substance GMDTYLMETLCSTVNLRCHA had an amyloid nucleation score of -0.604 ± 1.

In the case of EGTFRLID, the amyloid nucleation score stood at 0.047 ± 0.3.

As to LNLHS, the amyloid nucleation score is -0.384 ± 1.2.

The substance KDARLHFSWRL gave an amyloid nucleation score of 0.933 ± 0.6.

LEMGDPCQYCLDLFAGYPSG registered an amyloid nucleation score of 0.549 ± 0.55.

Substance PPWPVNSDDPGHYETSSNFS yielded an amyloid nucleation score of 1.29 ± 0.73.

Regarding RRSGTLDGSGSGSCVRLPPN, the amyloid nucleation score is -0.172 ± 0.5.

As to RYHSY, the amyloid nucleation score was -0.008 ± 0.77.

For the substance ANLDYWRSSTFTEHMVGLNR, the amyloid nucleation score was -0.469 ± 1.2.

For TCNQS, the amyloid nucleation score result was “inactive”.

Substance VDNIYAGVELLFSCKM showed an amyloid nucleation score of -0.331 ± 0.28.

LCWTIWV came in with an amyloid nucleation score of -1.61 ± 2.4.

As to SFVLGYSFLRKSCWFNVVTL, the amyloid nucleation score result was “inactive”.

Regarding PCGEKD, the amyloid nucleation score was found to be 0.559 ± 0.9.

MFFLYCLARRVGKLMECRV yielded an amyloid nucleation score of 1.28 ± 0.46.

As for KKLNSCF, the amyloid nucleation score was 0.533 ± 0.63.

Substance QFAHKVYPMSSCLVNVA had an amyloid nucleation score of -0.678 ± 0.57.

As to TIILSRLVEGVMQWAFMRAF, the amyloid nucleation score entry is “inactive”.

Regarding SDFAYCRCNLSVYRGMILTQ, the amyloid nucleation score is 0.064 ± 0.25.

On to AHLRCDREDIVESTSECGVG, for which the amyloid nucleation score entry was “inactive”.

FCFGGNVGRYLMVRPCVFGY came in with an amyloid nucleation score of 0.035 ± 0.71.

Substance EFAKNSFAKNTFAADAWLII showed an amyloid nucleation score of 0.802 ± 0.78.

TWCCEVNAAVEHG returned an amyloid nucleation score of -1.17 ± 1.1.

The substance VVMRPIFYGNSWLVRPLRNM yielded an amyloid nucleation score of -0.272 ± 0.45.

With DAHAISINHYRLSQTLSVPW, the amyloid nucleation score is -0.148 ± 0.35.

FGFVSPGPY had an amyloid nucleation score of -0.611 ± 0.51.

QMVGESDECRCSLYSGQWKG came in with an amyloid nucleation score of -0.186 ± 0.42.

With YFGDAGAFGFFSGLG, the amyloid nucleation score stood at 0.192 ± 0.61.

RMYYAFVCGGEDMESEFPCY yielded an amyloid nucleation score of -0.037 ± 1.4.

On to FSDFN, for which the amyloid nucleation score was -0.3 ± 0.42.

Substance RLRLWFVASRMVDKGSGLNV returned an amyloid nucleation score of 0.67 ± 0.49.

In turn, INTYWAGCIFCRMFGESRLK gave an amyloid nucleation score of 7.253 ± 0.069.

In turn, GLCTTCF registered an amyloid nucleation score of 0.126 ± 0.64.

Consider DCFARVLLTMRYLKGVVYTE, for which the amyloid nucleation score stood at 1.13 ± 0.27.

With YLWMFCYMYREVAIRVNVGG, the amyloid nucleation score is 0.1 ± 0.34.
